B1: PR302334-8: humanized variant of Series 9 mAb PR302334; VH SEQ ID NO: 273, VL SEQ ID NO: 332 (antibody, V domains shown)
VH: EVQLVESGGGLVQPGGSLRLSCAASGFTFSTYAMSWVRQAPGKGLEWVASIRSGGTTYYPDSVKGRFTISRDNSKNTLYLQMNSLRAEDTAVYYCTRGIDWGQGTTVTVSS
VL: EIVMTQSPATLSVSPGERATLSCKASQSVNNDVAWYQQKPGQAPRLLIYYASNRYTGIPARFSGSGSGTEFTLTISSLQSEDLAVYFCQQDYSSWTFGGGTKVEIK
modifications: PR302334-10 VH, PR302334-11 VH, PR302334-12 VH, PR302334-14 VH,PR302334-7 VH, PR302334-8 VH, PR302334-9 VH; PR302334-22 VL, PR302334-2 VL, PR302334-8 VL
B2: PR302334-10: humanized variant of Series 9 mAb PR302334; VH SEQ ID NO: 273, VL SEQ ID NO: 328 (antibody, V domains shown)
VH: EVQLVESGGGLVQPGGSLRLSCAASGFTFSTYAMSWVRQAPGKGLEWVASIRSGGTTYYPDSVKGRFTISRDNSKNTLYLQMNSLRAEDTAVYYCTRGIDWGQGTTVTVSS
VL: DIVMTQSPDSLAVSLGERATINCKASQSVNNDVAWYQQKPGQPPRLLIYYASNRYTGVPDRFSGSGSGTDFTLTISSLQAEDLAVYFCQQDYSSWTFGGGTKVEIK
modifications: PR302334-10 VH, PR302334-11 VH, PR302334-12 VH, PR302334-14 VH,PR302334-7 VH, PR302334-8 VH, PR302334-9 VH; PR302334-10 VL, PR302334-24 VL, PR302334-26 VL, PR302334-4 VL
B3: PR302334-27: humanized variant of Series 9 mAb PR302334; VH SEQ ID NO: 277, VL SEQ ID NO: 330 (antibody, V domains shown)
VH: EVQLVESGGGLVQPGGSLRLSCAASGFTFSTYAMSWVRQAPGKGLEWVASIRSGGTTYYPDSVKGRFTISRDNSKNSLYLQMNSLRAEDTAVYYCTRGIDWGQGTTVTVSS
VL: DIQMTQSSLSASVSLGDRVTITCKASQSVNNDVAWYQQKPGKAPRLLIYYASNRYTGVPSRFSGSGSGTDFTFTISSLQPEDLATYFCQQDYSSWTFGGGTKVEIK
modifications: PR302334-18 VH, PR302334-26 VH, PR302334-27 VH; PR302334-12 VL, PR302334-25 VL, PR302334-27 VL, PR302334-6 VL
B4: PR302334: Series 9 anti-CRH mAb from immunized wildtype mice; VH SEQ ID NO: 272, VL SEQ ID NO: 331 (antibody, V domains shown)
VH: EVKLVESGGGLVKPGGSLKLSCAASGFTFSTYAMSWVRQTPEKRLEWVASIRSGGTTYYPDSVKGRFTISRDNARNILYLQMSSLRSEDTAIYYCTRGIDWGQGTLVTVSA
VL: NIVMTQTPKFLLVSAGDRITITCKASQSVNNDVAWYQQKPGQSPKLLIYYASNRYTGVPDRFTGSGYGTDFTFTISTVQAEDLAVYFCQQDYSSWTFGGGTNLEIK
modifications: PR302334-1 VH, PR302334-2 VH, PR302334-3 VH, PR302334-4 VH,PR302334-5 VH, PR302334-6 VH, PR302334 VH; PR302334-14 VL, PR302334-15 VL, PR302334-16 VL, PR302334-17 VL,PR302334-18 VL, PR302334 VL

What was measured:
biotinylated CRH = target: T1, biotinylated CRH (Homo sapiens, UniProt P06850); assay: Affinity determination with Octet; assay type: binding
T1 construct: purchased GL Biochem 784751
T1 sequence (P06850 154-194): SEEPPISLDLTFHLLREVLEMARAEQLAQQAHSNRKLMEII
Procedure: Octet® Red 96e was used for affinity measurement. Octet® running buffer was prepared by diluting kinetics buffer 10× (Fortebio, Cat #18-1105) in PBS according to the manufacturer's instructions. Two columns of SA sensors (Fortebio, Cat #18-5019) were hydrated in running buffer for 10 mins, one for ligand capturing and the other for reference. Antibodies were 2-fold diluted and added into a 96-well plate. 30 nM biotinylated CRH (GL Biochem, Cat #784751) was captured by the first column of SA sensors for 20 seconds, while reference sensors were dipped into buffer wells. After a 60-second baseline step, sensors were dipped into analyte and buffer wells successively, with the association and dissociation time of 180 seconds and 800 seconds, respectively. Sensors were regenerated in glycine pH1.5 (Cytiva, Cat #BR-1003-54) before the next cycle. […] Signals of reference wells and reference sensors were subtracted by selecting “Double reference” before data fitting.

human CRHR2 = assay: CRH-induced luciferase reporter blocking assay, CHO-CRE-hCRHR2 cells; assay type: cell-based; settings: CHO-CRE-hCRHR2 cells, 0.1 nM CRH
Procedure: (§1) To create CHO-CRE-hCRHR1, -hCRHR2, -mCRHR1, and -mCRHR2 reporter cell lines, pcDNA3.1-hCRHR1, -hCRHR2, -mCRHR1, and -mCRHR2 were introduced into CHO-CRE cells established above by electroporation as described above. Selection antibiotics hygromycin at 500 μg/ml and G418 at 1,000 μg/ml were employed. Individual established stable cell lines were characterized by both CRH and forskolin stimulation.
Activated GPCR proteins increase production of the intracellular cAMP. CHO-CRE-human CRHR1 stable clone 11 was generated by introduction of pcDNA3.1-human CRHR1 under the selection of G418 and hygromycin. Human CRHR1 expression in CHO-CRE-hCRHR1 Clone 11 was confirmed by flow cytometry (data not shown). To further validate that the cell line was functional, CHO-CRE-hCRHR1 Clone 11 cells were treated with forskolin and CRH peptide. […] Subsequently CHO-CRE-hCRHR2 Clone 32, -mCRHR1 Clone 22, and -mCRHR2 Clone 8 cell lines were established using similar methodology and validated with CRH treatment (data not shown).
Blocking CRHR1 by small molecules or neutralization of CRH peptide can reduce luciferase expression if the CRH-CRHR1 system works in CHO-CRE-hCRHR1 cells. Antalarmin, a small molecule CRHR1 antagonist, blocked CRH-mediated luciferase expression in CHO-CRE-hCRHR1 Clone 11 (data not shown). Furthermore, sheep anti-CRH polyclonal antibody reduced CRH-mediated luciferase expression in these cells (data not shown). Likewise, sheep anti-CRH polyclonal antibody blocked CRH-mediated luciferase expression in CHO-CRE-hCRHR2, CHO-CRE-mCRHR1, and CHO-CRE-mCRHR2 cells (data not shown).
(§2) Cells were digested by trypsin-EDTA (Life technologies, Cat #:12604-013), centrifuged at 1,000 rpm for 5 min, resuspended in growth medium, counted using a cell counter, seeded at a concentration of 5,000 cells per 100 μl in 96-well flat plates, and incubated overnight. 50 μl of 4× serially diluted antibodies was added (8 points, 1/4 diluted by growth medium) to plates containing CHO-CRE-hCRHR1 cells, and 50 μl of 4×CRH (4× is 2 nM, final is 0.5 nM) was added. Similarly, 4×CRH (4× is 0.4 nM, final is 0.1 nM) was added to CHO-CRE-hCRHR2 cells and CHO-CRE-mCRHR1 cells, and 4×CRH (4× is 20 nM, final is 5 nM) was added to CHO-CRE-mCRHR2 cells. Next, plates were incubated 4-6 hours at 37° C. in a CO2 incubator. 60 μl of culture medium was removed, to which was added 60 μl of Bio-Glo luciferase, followed by incubation for 10 min at RT. Plates were read in a luciferase plate reader (EnVision, PerkinElmer).

mouse CRHR2 = assay: CRH-induced luciferase reporter blocking assay, CHO-CRE-mCRHR2 cells; assay type: cell-based; settings: CHO-CRE-mCRHR2 cells, 5 nM CRH
Procedure: as §1, with “stimulation. […]” for “stimulation.”
as §2

Row | Molecule | kdis (biotinylated CRH) | kon (biotinylated CRH) | IC50 (human CRHR2) | IC50 (mouse CRHR2)
1 | B1 | <1e-07 s⁻¹ | 14700 M⁻¹ s⁻¹ | 2.32 nM | 2.74 nM
2 | B2 | <1e-07 s⁻¹ | 6840 M⁻¹ s⁻¹ | 2.08 nM | 1.98 nM
3 | B3 | <1e-07 s⁻¹ | 302000 M⁻¹ s⁻¹ | 1.65 nM | 1.84 nM
4 | B4 | <1e-07 s⁻¹ | 669000 M⁻¹ s⁻¹ | 0.803 nM | 0.995 nM

Reference: patent publication US20260042834A1, “ANTI-CORTICOTROPIN-RELEASING HORMONE ANTIBODIES AND POLYCYSTIC OVARY SYNDROME” (HBM ALPHA THERAPEUTICS, INC., priority 2022, published 2026)
